Measurements reported in patent publication US10799597B2, “Subcutaneous administration of antibody-drug conjugates for cancer therapy” (Immunomedics, Inc., priority 2017, dated 2020).
Where “and” joins values, the source holds several entries; their conditions need not be identical. Equal entries are not always repeated.

Legend:
[1] = system: triple-negative breast cancer; assay: Subcutaneous IMMU-132 in triple-negative breast cancer patients (Example 10); assay type: in vivo, human
Protocol: Maintenance doses of ADC are administered i.v. or s.c. every two to three weeks or monthly after induction. Alternatively, induction may occur with two to four cycles of i.v. administration at 8-10 mg/kg (each cycle with ADC administration on Days 1 and 8 of two 21-day cycles with a one-week rest period in between), followed by s.c. administration as active dosing one or more times weekly or as maintenance therapy. Dosing may be adjusted based on interim tumor scans and/or by analysis of Trop-2 positive circulating tumor cells.

[2] = Phase I/II trial of IMMU-132: MTD and toxicity profile; assay type: in vivo, human; conditions: 75 patients in the full trial
Protocol: Patients with metastatic cancers were enrolled after failing standard therapy, starting at a dose of 8.0 mg/kg given on days 1 and 8 of a 3-week cycle.

[3] = Pharmacokinetics and biodistribution of 111In-labeled hRS7-CL2A-SN-38 and hRS7 IgG in nude mice bearing SK-MES-1 tumors; assay type: in vivo
Protocol: One group was injected intravenously with 20 μCi (250-μg protein) of ^111In-hRS7-CL2A-SN-38, whereas another group received 20 μCi (250-μg protein) of ^111In-hRS7 IgG. At various timepoints mice (5 per timepoint) were anesthetized, bled via intracardiac puncture, and then euthanized. Tumors and various tissues were removed, weighed, and counted by γ scintillation to determine the percentage injected dose per gram tissue (% ID/g). […] Pharmacokinetic analysis on blood clearance was performed using WinNonLin software (Parsight Corp.).

Calu-3 = assay: Signaling events (p21Waf1/Cip1, p53) in Calu-3 cells; assay type: cell-based, human
Description: SN-38 is known to activate several signaling pathways in cells, leading to apoptosis (e.g., Cusack et al., 2001, Cancer Res 61:3535-40; Liu et al. 2009, Cancer Lett 274:47-53; Lagadec et al., 2008, Br J Cancer 98:335-44). Our initial studies examined the expression of 2 proteins involved in early signaling events (p21^Waf1/Cip1 and p53) and 1 late apoptotic event [cleavage of poly-ADP-ribose polymerase (PARP)] in vitro (not shown).

[4] = system: COLO 205 colonic adenocarcinoma xenografts; conditions: 0.4 mg/kg SN-38 twice weekly×4 weeks
Protocol: Animals were implanted subcutaneously with different human cancer cell lines. Tumor volume (TV) was determined by measurements in 2 dimensions using calipers, with volumes defined as: L×w^2/2, where L is the longest dimension of the tumor and w is the shortest. […] This dosing frequency reflected a consideration of the conjugate's serum half-life in vitro, to allow a more continuous exposure to the ADC.
Growth curves are shown as percent change in initial TV over time. Statistical analysis of tumor growth was based on area under the curve (AUC). Profiles of individual tumor growth were obtained through linear-curve modeling. An f-test was employed to determine equality of variance between groups before statistical analysis of growth curves. A 2-tailed t-test was used to assess statistical significance between the various treatment groups and controls, except for the saline control, where a 1-tailed t-test was used (significance at P≤0.05). Statistical comparisons of AUC were performed only up to the time that the first animal within a group was euthanized due to progression.

[5] = system: Capan-1 pancreatic adenocarcinoma xenografts; assay: Therapy of Capan-1 tumor xenografts in nude mice; assay type: in vivo, athymic nude mice; conditions: 0.2 mg/kg SN-38 twice weekly×4 weeks
Protocol: FIG. 3C. […] Animals were treated twice weekly for 4 weeks as indicated by the arrows. Capan-1 mice (N=10) were treated with 0.2 mg/kg ADC and tumors measured weekly.
FIG. 4C. […] Capan-1 (N=10) were treated twice weekly for 4 weeks with the agents indicated.

[6] = Tolerability in Swiss-Webster mice; assay type: in vivo
[7] = system: diverse metastatic cancers; assay: Phase I/II clinical trial of IMMU-132 (Example 9): best response and TTP
Protocol: To optimize cumulative treatment with minimal delays, phase II is focusing on 8 and 10 mg/kg (n=30 and 14, respectively). […] [table]

[8] = Tolerability in Cynomolgus monkeys; assay type: in vivo, Cynomolgus monkeys (Macaca fascicularis)
Protocol: FIG. 5C. Tolerability of hRS7-CL2A-SN-38 in Cynomolgus monkeys. […] All animals were bled on day −1, 3, and 6. Four monkeys were bled on day 11 in the 0.96 mg/kg group, 3 in the 1.92 mg/kg group. Changes in neutrophil counts in Cynomolgus monkeys.
FIG. 5D. Tolerability of hRS7-CL2A-SN-38 in Cynomolgus monkeys. […] All animals were bled on day −1, 3, and 6. Four monkeys were bled on day 11 in the 0.96 mg/kg group, 3 in the 1.92 mg/kg group. Changes in platelet counts in Cynomolgus monkeys.

[9] = system: human urinary bladder carcinoma (5637); assay: Efficacy of i.v. vs. s.c. IMMU-132 in 5637 bladder carcinoma xenografts; assay type: in vivo, athymic nude mice; conditions: for mean tumor volume: day 82; for mice still alive on day 82: N=5; for median survival time (MST): post-therapy initiation
Protocol: 5637 cells were expanded in tissue culture and harvested with trypsin/EDTA. Female athymic nude mice were injected s.c. with 200 μL of 5637 cell suspension mixed 1:1 with matrigel such that 1×10^7 cells was administered to each mouse. Once tumors reached approximately 0.25 cm^3 in size (15 days later), the animals were divided up into three different treatment groups of 4-5 mice each. For the i.v. injections (N=5), mice receive 500 μg i.v. twice a week for four weeks. […] A final group of mice received only saline (N=4) and served as the untreated control. Tumors were measured and mice weighed twice a week. Mice were euthanized for disease progression if their tumor volumes exceeded 1.0 cm^3 in size.

[10] = assay type: in vivo, human
Protocol: SN-38 was measured by HPLC.

[11] = 48 assessable patients (excluding PDC)

IMMU-132: ADC of the humanized hRS7 anti-Trop-2 antibody conjugated by a pH-sensitive linker (CL2A) to SN-38
localized reaction at the administration site ([1]; s.c.): no adverse localized reaction is observed
average decrease in tumor volume ([1]; s.c. 2 to 4 mg/kg schedules, after two cycles of therapy): 35%
Grade 3 diarrhea [2]: 6.7%
Grade 3 neutropenia [2]: 17.3%
Grade 4 neutropenia [2]: 2.7%
amount in the tumor compared with hRS7 IgG ([3]; 72 hours (peak uptake)): similar
half-life shorter than unconjugated hRS7 ([3]; i.v., 250-μg protein): ~40%
increase of p21Waf1/Cip1 expression over free SN-38 (Calu-3): more than 2 fold
time of p53 upregulation (Calu-3): ≤ 24 h
tumor growth vs. saline and hA20-CL2A-SN-38 [4]: significantly inhibited tumor growth
tumor growth vs. saline and hA20-CL2A-SN-38 [5]: significantly inhibited tumor growth
mice tumor-free at the end of the study ([5]; day 140): 50%
chloride levels, range ([6]; 2 highest dosage groups, upper end of normal range 115 mmol/L): 116 to 127 mmol/L
weight loss ([6]; 2 i.p. doses over 3 days of 4, 8, and 12 mg SN-38/kg): minimal transient weight loss
mice with elevated chloride levels ([6]; 2×8 mg/kg group): 57%
mice with slightly elevated glucose levels ([6]; 2×8 mg/kg, of 7 mice): 5
elevated glucose levels, range ([6]; 2×8 mg/kg, upper end of normal 263 mg/dL): 273 to 320 mg/dL
mice with elevated chloride levels ([6]; 2×12 mg/kg group): 100%
aspartate transaminase (AST) ([6]; seven days after treatment, all 3 treatment groups, normal limit 298 U/L): rose above normal levels
patients with SD ([7]; 13 CT-assessable PDC patients): 62%
patients with disease response (total) [7, 11]: 79%
patients with partial response (PR) [7, 11]: 15%
median time to progression (TTP) ([7]; PDC patients): 12.7 wks and 11.9 wks
blood count values ([8]; 2×0.96 mg SN-38/kg, transient decreases): did not fall below normal ranges
MTD, human equivalent dose ([8]; cynomolgus monkey, in vivo): 2×0.3 to 0.6
mean tumor volume ([9]; i.v. 500 μg twice a week for four weeks): 0.066±0.076 cm^3
mice still alive on day 82 ([9]; i.v.): 5
median survival time (MST) ([9]; i.v.): > 67 days
mean tumor volume ([9]; s.c. 500 μg twice weekly for four weeks): 0.111±0.057 cm^3
mice still alive on day 82 ([9]; s.c.): 5
median survival time (MST) ([9]; s.c.): > 67 days
clearance of intact conjugate vs. the IgG ([10]; ELISA): cleared more quickly than the IgG
time for the conjugate to clear from the serum ([10]; patients): ≤ 3 days
